Laboratory results published in the supplement of paper PMC10567573.

B1: GNB5 (parent)
chain: YYPSGDAFASGSDDATCRLYDLRA
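Further: lentivirally expressed fusions sorted by FACS into six bins by GFP to DsRed ratio, PSI derived from sequencing read proportions per bin multiplied by bin number.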

Variants of: B1
Assay: protein stability index of a GFP-peptide fusion (GPS, HEK-293T) (PSI 1-6); higher = more stable
Details: c terminus: a fixed tail appended
With YYPSGDAWASGSDDATCRLYDLRA the protein stability index was 2.62.
In the case of YYPSGDAAASGSDDATCRLYDLRA, the protein stability index is reported as 4.18.
For YYPSGDAQASGSDDATCRLYDLRA, the protein stability index was 3.71.
In the case of YYPSGDACASGSDDATCRLYDLRA, the protein stability index is reported as 3.87.
Work on YYPSGDAGASGSDDATCRLYDLRA yielded a protein stability index of 4.09.
Variant YYPSGDADASGSDDATCRLYDLRA has a protein stability index of 4.4.
In the case of YYPSGDAHASGSDDATCRLYDLRA, the protein stability index is reported as 4.09.
In the case of YYPSGDATASGSDDATCRLYDLRA, the protein stability index is reported as 4.02.
In the case of YYPSGDAPASGSDDATCRLYDLRA, the protein stability index is reported as 4.12.
Variant YYPSGDAYASGSDDATCRLYDLRA has a protein stability index of 2.61.
In the case of YYPSGDAMASGSDDATCRLYDLRA, the protein stability index is reported as 3.53.
Variant YYPSGDANASGSDDATCRLYDLRA has a protein stability index of 4.23.
Variant YYPSGDAIASGSDDATCRLYDLRA has a protein stability index of 3.42.
Variant YYPSGDALASGSDDATCRLYDLRA has a protein stability index of 3.6.
YYPSGDASASGSDDATCRLYDLRA gave a protein stability index of 4.11.
For YYPSGDAVASGSDDATCRLYDLRA, the protein stability index was 4.07.
In the case of YYPSGDARASGSDDATCRLYDLRA, the protein stability index is reported as 3.76.
Work on YYPSGDAEASGSDDATCRLYDLRA yielded a protein stability index of 4.5.
With YYPHGDAFASGSDDATCRLYDLRA the protein stability index was 2.87.
YYPIGDAFASGSDDATCRLYDLRA gave a protein stability index of 2.8.
With YYPYGDAFASGSDDATCRLYDLRA the protein stability index was 2.82.
With YYPFGDAFASGSDDATCRLYDLRA the protein stability index was 2.29.
YYPMGDAFASGSDDATCRLYDLRA showed a protein stability index of 3.45.
YYPLGDAFASGSDDATCRLYDLRA gave a protein stability index of 2.52.
With YYPKGDAFASGSDDATCRLYDLRA the protein stability index was 3.33.
With YYPCGDAFASGSDDATCRLYDLRA the protein stability index was 2.16.
YYPVGDAFASGSDDATCRLYDLRA gave a protein stability index of 2.56.
YYPPGDAFASGSDDATCRLYDLRA gave a protein stability index of 3.78.
Variant YYPNGDAFASGSDDATCRLYDLRA has a protein stability index of 3.03.
Work on YYPAGDAFASGSDDATCRLYDLRA yielded a protein stability index of 3.06.
With YYPEGDAFASGSDDATCRLYDLRA the protein stability index was 3.72.
With YYPWGDAFASGSDDATCRLYDLRA the protein stability index was 2.49.
With YYPGGDAFASGSDDATCRLYDLRA the protein stability index was 3.14.
Work on YYPDGDAFASGSDDATCRLYDLRA yielded a protein stability index of 3.56.
For YYPTGDAFASGSDDATCRLYDLRA, the protein stability index was 2.86.
Variant YYPRGDAFASGSDDATCRLYDLRA has a protein stability index of 2.46.
With YYPQGDAFASGSDDATCRLYDLRA the protein stability index was 3.48.
YYPSGDSFASGSDDATCRLYDLRA showed a protein stability index of 2.39.
In the case of YYPSGDKFASGSDDATCRLYDLRA, the protein stability index is reported as 2.52.
Variant YYPSGDEFASGSDDATCRLYDLRA has a protein stability index of 3.1.
Variant YYPSGDRFASGSDDATCRLYDLRA has a protein stability index of 3.1.
YYPSGDLFASGSDDATCRLYDLRA showed a protein stability index of 2.2.
Work on YYPSGDFFASGSDDATCRLYDLRA yielded a protein stability index of 1.77.
YYPSGDGFASGSDDATCRLYDLRA gave a protein stability index of 3.47.
Variant YYPSGDVFASGSDDATCRLYDLRA has a protein stability index of 2.23.
Variant YYPSGDPFASGSDDATCRLYDLRA has a protein stability index of 2.5.
Variant YYPSGDHFASGSDDATCRLYDLRA has a protein stability index of 2.58.
Work on YYPSGDNFASGSDDATCRLYDLRA yielded a protein stability index of 2.73.
In the case of YYPSGDIFASGSDDATCRLYDLRA, the protein stability index is reported as 2.31.
YYPSGDQFASGSDDATCRLYDLRA showed a protein stability index of 2.65.
Work on YYPSGDMFASGSDDATCRLYDLRA yielded a protein stability index of 2.47.
In the case of YYPSGDYFASGSDDATCRLYDLRA, the protein stability index is reported as 2.06.
For YYPSGDDFASGSDDATCRLYDLRA, the protein stability index was 3.83.
In the case of YYPSGDWFASGSDDATCRLYDLRA, the protein stability index is reported as 1.66.
Variant YYPSGDTFASGSDDATCRLYDLRA has a protein stability index of 2.71.
With YYPSGDCFASGSDDATCRLYDLRA the protein stability index was 2.31.
With YYPSPDAFASGSDDATCRLYDLRA the protein stability index was 2.69.
In the case of YYPSEDAFASGSDDATCRLYDLRA, the protein stability index is reported as 3.96.
With YYPSSDAFASGSDDATCRLYDLRA the protein stability index was 3.09.
In the case of YYPSIDAFASGSDDATCRLYDLRA, the protein stability index is reported as 2.8.
Variant YYPSFDAFASGSDDATCRLYDLRA has a protein stability index of 2.61.
For YYPSHDAFASGSDDATCRLYDLRA, the protein stability index was 2.81.
With YYPSADAFASGSDDATCRLYDLRA the protein stability index was 2.95.
Variant YYPSQDAFASGSDDATCRLYDLRA has a protein stability index of 2.7.
For YYPSKDAFASGSDDATCRLYDLRA, the protein stability index was 2.89.
In the case of YYPSNDAFASGSDDATCRLYDLRA, the protein stability index is reported as 3.88.
YYPSMDAFASGSDDATCRLYDLRA showed a protein stability index of 2.88.
In the case of YYPSTDAFASGSDDATCRLYDLRA, the protein stability index is reported as 3.56.
YYPSCDAFASGSDDATCRLYDLRA showed a protein stability index of 3.39.
In the case of YYPSVDAFASGSDDATCRLYDLRA, the protein stability index is reported as 3.17.
In the case of YYPSRDAFASGSDDATCRLYDLRA, the protein stability index is reported as 3.12.
For YYPSWDAFASGSDDATCRLYDLRA, the protein stability index was 2.37.
For YYPSYDAFASGSDDATCRLYDLRA, the protein stability index was 2.4.
Variant YYPSDDAFASGSDDATCRLYDLRA has a protein stability index of 3.77.
YYPSLDAFASGSDDATCRLYDLRA gave a protein stability index of 2.76.
Work on SYPSGDAFASGSDDATCRLYDLRA yielded a protein stability index of 3.99.
Variant KYPSGDAFASGSDDATCRLYDLRA has a protein stability index of 3.55.
For WYPSGDAFASGSDDATCRLYDLRA, the protein stability index was 2.86.
Work on EYPSGDAFASGSDDATCRLYDLRA yielded a protein stability index of 3.81.
IYPSGDAFASGSDDATCRLYDLRA showed a protein stability index of 3.52.
HYPSGDAFASGSDDATCRLYDLRA gave a protein stability index of 3.95.
Work on PYPSGDAFASGSDDATCRLYDLRA yielded a protein stability index of 3.72.
Variant QYPSGDAFASGSDDATCRLYDLRA has a protein stability index of 3.81.
Variant DYPSGDAFASGSDDATCRLYDLRA has a protein stability index of 4.09.
VYPSGDAFASGSDDATCRLYDLRA gave a protein stability index of 3.72.
FYPSGDAFASGSDDATCRLYDLRA gave a protein stability index of 2.65.
With GYPSGDAFASGSDDATCRLYDLRA the protein stability index was 3.7.
In the case of MYPSGDAFASGSDDATCRLYDLRA, the protein stability index is reported as 3.67.
For TYPSGDAFASGSDDATCRLYDLRA, the protein stability index was 3.6.
In the case of CYPSGDAFASGSDDATCRLYDLRA, the protein stability index is reported as 3.3.
In the case of NYPSGDAFASGSDDATCRLYDLRA, the protein stability index is reported as 3.71.
For LYPSGDAFASGSDDATCRLYDLRA, the protein stability index was 3.84.
AYPSGDAFASGSDDATCRLYDLRA gave a protein stability index of 3.83.
Work on RYPSGDAFASGSDDATCRLYDLRA yielded a protein stability index of 3.58.
